This passage reports binding signal results from paper PMC8321654, “Heterogeneous nuclear ribonucleoprotein E1 binds polycytosine DNA and monitors genome integrity”.

This series has as its target GST-hnRNP E1 (UniProt Q15365 1-356). Description: EMSA; 25 mM Tris-HCl pH 7.6, 1 mM EDTA, 2% glycerol, 10 mM beta-ME, 50 ug/ml BSA, with or without 1.5 ng denatured E. coli DNA; 20 fmol probe in 50 ul; RT 15 min; 8-10% PAGE in 1x TBE. The settings on record: protein: recombinant; tags: GST; label: 5'-32P.

Sequence of GST-hnRNP E1 (Q15365 whole entry): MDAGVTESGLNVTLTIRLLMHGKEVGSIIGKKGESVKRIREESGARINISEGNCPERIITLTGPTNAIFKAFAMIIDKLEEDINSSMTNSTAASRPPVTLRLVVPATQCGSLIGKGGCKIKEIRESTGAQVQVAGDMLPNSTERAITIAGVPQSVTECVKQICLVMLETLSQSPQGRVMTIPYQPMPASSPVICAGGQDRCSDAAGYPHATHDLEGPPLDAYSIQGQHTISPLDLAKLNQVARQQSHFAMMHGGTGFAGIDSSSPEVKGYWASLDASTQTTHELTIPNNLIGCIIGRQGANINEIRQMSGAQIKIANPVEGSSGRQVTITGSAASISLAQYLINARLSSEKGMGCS

With AAUUGCUACCCAAUGCCUGGCCCAAGGGCAUUCCCAAAGCUUA (ssRNA) [BAT RNA consensus (43 nt)], the binding signal was 11 fold molar excess protein for 50% shift.
